7 proteins from paper PMC3290569, “Macro-to-Micro Structural Proteomics: Native Source Proteins for High-Throughput Crystallization” (PLoS ONE, 2012) can be followed below.

The data set concerns the molecule itself. In words: crystal structure; native source E. coli proteins already in the PDB, identified and solved by brute-force molecular replacement, not refined except to confirm the solution; oligomer seen in the crystal.

B1: Catalase HPII (enzyme, Escherichia coli, UniProt P21179 1-753, looked up)
chain: MSQHNEKNPHQHQSPLHDSSEAKPGMDSLAPEDGSHRPAAEPTPPGAQPTAPGSLKAPDTRNEKLNSLEDVRKGSENYALTTNQGVRIADDQNSLRAGSRGPTLLEDFILREKITHFDHERIPERIVHARGSAAHGYFQPYKSLSDITKADFLSDPNKITPVFVRFSTVQGGAGSADTVRDIRGFATKFYTEEGIFDLVGNNTPIFFIQDAHKFPDFVHAVKPEPHWAIPQGQSAHDTFWDYVSLQPETLHNVMWAMSDRGIPRSYRTMEGFGIHTFRLINAEGKATFVRFHWKPLAGKASLVWDEAQKLTGRDPDFHRRELWEAIEAGDFPEYELGFQLIPEEDEFKFDFDLLDPTKLIPEELVPVQRVGKMVLNRNPDNFFAENEQAAFHPGHIVPGLDFTNDPLLQGRLFSYTDTQISRLGGPNFHEIPINRPTCPYHNFQRDGMHRMGIDTNPANYEPNSINDNWPRETPPGPKRGGFESYQERVEGNKVRERSPSFGEYYSHPRLFWLSQTPFEQRHIVDGFSFELSKVVRPYIRERVVDQLAHIDLTLAQAVAKNLGIELTDDQLNITPPPDVNGLKKDPSLSLYAIPDGDVKGRVVAILLNDEVRSADLLAILKALKAKGVHAKLLYSRMGEVTADDGTVLPIAATFAGAPSLTVDAVIVPCGNIADIADNGDANYYLMEAYKHLKPIALAGDARKFKATIKIADQGEEGIVEADSADGSFMDELLTLMAAHRVWSRIPKIDKIPA
notes: catalase HPII, Escherichia coli, native source protein; identified with PDB 1GG9; the PDB entry is the previously deposited structure that identified the protein; the crystallised protein is the native one; source: purified from E. coli DH5α cells (whole-proteome fractionation)
As for B1, the binding result is listed as “binds”.

B2: 5-keto-4-deoxyuronate isomerase (enzyme, Escherichia coli, UniProt Q46938 1-278, looked up)
chain: MDVRQSIHSAHAKTLDTQGLRNEFLVEKVFVADEYTMVYSHIDRIIVGGIMPITKTVSVGGEVGKQLGVSYFLERRELGVINIGGAGTITVDGQCYEIGHRDALYVGKGAKEVVFASIDTGTPAKFYYNCAPAHTTYPTKKVTPDEVSPVTLGDNLTSNRRTINKYFVPDVLETCQLSMGLTELAPGNLWNTMPCHTHERRMEVYFYFNMDDDACVFHMMGQPQETRHIVMHNEQAVISPSWSIHSGVGTKAYTFIWGMVGENQVFDDMDHVAVKDLR
notes: 5-keto-4-deoxyuronate isomerase, Escherichia coli, native source protein; identified with PDB 1XRU; the PDB entry is the previously deposited structure that identified the protein; the crystallised protein is the native one; source: purified from E. coli DH5α cells (whole-proteome fractionation)
B2: the binding result is “binds”.

B3: heat shock protein 31 (HSP31) (natural protein, Escherichia coli, UniProt P31658 1-283, looked up)
chain: MTVQTSKNPQVDIAEDNAFFPSEYSLSQYTSPVSDLDGVDYPKPYRGKHKILVIAADERYLPTDNGKLFSTGNHPIETLLPLYHLHAAGFEFEVATISGLMTKFEYWAMPHKDEKVMPFFEQHKSLFRNPKKLADVVASLNADSEYAAIFVPGGHGALIGLPESQDVAAALQWAIKNDRFVISLCHGPAAFLALRHGDNPLNGYSICAFPDAADKQTPEIGYMPGHLTWYFGEELKKMGMNIINDDITGRVHKDRKLLTGDSPFAANALGKLAAQEMLAAYAG
notes: Hsp31, Escherichia coli, native source protein; identified with PDB 1N57; the PDB entry is the previously deposited structure that identified the protein; the crystallised protein is the native one; source: purified from E. coli DH5α cells (whole-proteome fractionation)
As to B3, the binding result is “binds”.

B4: Inorganic pyrophosphatase (enzyme, Escherichia coli, UniProt P0A7A9 1-176, looked up)
chain: MSLLNVPAGKDLPEDIYVVIEIPANADPIKYEIDKESGALFVDRFMSTAMFYPCNYGYINHTLSLDGDPVDVLVPTPYPLQPGSVIRCRPVGVLKMTDEAGEDAKLVAVPHSKLSKEYDHIKDVNDLPELLKAQIAHFFEHYKDLEKGKWVKVEGWENAEAAKAEIVASFERAKNK
notes: inorganic pyrophosphatase, Escherichia coli, native source protein; identified with PDB 1IPW; the PDB entry is the previously deposited structure that identified the protein; the crystallised protein is the native one; source: purified from E. coli DH5α cells (whole-proteome fractionation)
With B4, the binding result is “binds”.

B5: Ariginosuccinate lyase (enzyme, Escherichia coli, UniProt P11447 1-457, looked up)
chain: MALWGGRFTQAADQRFKQFNDSLRFDYRLAEQDIVGSVAWSKALVTVGVLTAEEQAQLEEALNVLLEDVRARPQQILESDAEDIHSWVEGKLIDKVGQLGKKLHTGRSRNDQVATDLKLWCKDTVSELLTANRQLQSALVETAQNNQDAVMPGYTHLQRAQPVTFAHWCLAYVEMLARDESRLQDALKRLDVSPLGCGALAGTAYEIDREQLAGWLGFASATRNSLDSVSDRDHVLELLSAAAIGMVHLSRFAEDLIFFNTGEAGFVELSDRVTSGSSLMPQKKNPDALELIRGKCGRVQGALTGMMMTLKGLPLAYNKDMQEDKEGLFDALDTWLDCLHMAALVLDGIQVKRPRCQEAAQQGYANATELADYLVAKGVPFREAHHIVGEAVVEAIRQGKPLEDLPLSELQKFSQVIDEDVYPILSLQSCLDKRAAKGGVSPQQVAQAIAFAQARLG
notes: argininosuccinate lyase (printed: Ariginosuccinate lyase), Escherichia coli, native source protein; identified with PDB 1TJ7; the PDB entry is the previously deposited structure that identified the protein; the crystallised protein is the native one; also called Arginosuccinate lyase; source: purified from E. coli DH5α cells (whole-proteome fractionation)
On to B5, for which the binding result was “binds”.

B6: Lysyl-tRNA synthetase (constitutive) (enzyme, Escherichia coli, UniProt P0A8N3 1-505, looked up)
chain: MSEQHAQGADAVVDLNNELKTRREKLANLREQGIAFPNDFRRDHTSDQLHAEFDGKENEELEALNIEVAVAGRMMTRRIMGKASFVTLQDVGGRIQLYVARDDLPEGVYNEQFKKWDLGDILGAKGKLFKTKTGELSIHCTELRLLTKALRPLPDKFHGLQDQEARYRQRYLDLISNDESRNTFKVRSQILSGIRQFMVNRGFMEVETPMMQVIPGGAAARPFITHHNALDLDMYLRIAPELYLKRLVVGGFERVFEINRNFRNEGISVRHNPEFTMMELYMAYADYKDLIELTESLFRTLAQDILGKTEVTYGDVTLDFGKPFEKLTMREAIKKYRPETDMADLDNFDSAKAIAESIGIHVEKSWGLGRIVTEIFEEVAEAHLIQPTFITEYPAEVSPLARRNDVNPEITDRFEFFIGGREIGNGFSELNDAEDQAQRFLDQVAAKDAGDDEAMFYDEDYVTALEHGLPPTAGLGIGIDRMVMLFTNSHTIRDVILFPAMRPVK
notes: lysyl-tRNA synthetase, constitutive form, Escherichia coli, native source protein; identified with PDB 1BBW; the PDB entry is the previously deposited structure that identified the protein; the crystallised protein is the native one; source: purified from E. coli DH5α cells (whole-proteome fractionation)
In the case of B6, the binding result is given as “binds”.

B7: Cystathione gamma-synthase (enzyme, Escherichia coli, UniProt P00935 1-386, looked up)
chain: MTRKQATIAVRSGLNDDEQYGCVVPPIHLSSTYNFTGFNEPRAHDYSRRGNPTRDVVQRALAELEGGAGAVLTNTGMSAIHLVTTVFLKPGDLLVAPHDCYGGSYRLFDSLAKRGCYRVLFVDQGDEQALRAALAEKPKLVLVESPSNPLLRVVDIAKICHLAREVGAVSVVDNTFLSPALQNPLALGADLVLHSCTKYLNGHSDVVAGVVIAKDPDVVTELAWWANNIGVTGGAFDSYLLLRGLRTLVPRMELAQRNAQAIVKYLQTQPLVKKLYHPSLPENQGHEIAARQQKGFGAMLSFELDGDEQTLRRFLGGLSLFTLAESLGGVESLISHAATMTHAGMAPEARAAAGISETLLRISTGIEDGEDLIADLENGFRAANKG
notes: cystathionine gamma-synthase (printed: Cystathione gamma-synthase), Escherichia coli, native source protein; identified with PDB 1CS1; the PDB entry is the previously deposited structure that identified the protein; the crystallised protein is the native one; source: purified from E. coli DH5α cells (whole-proteome fractionation)
With B7, the binding result was “binds”.
